Assay: soluble on expression in E. coli; label from the status in PepcDB or PDB records

Sequence	soluble on expression in E. coli
MKHHHHHHMTFPGDTAVLVLAAGPGTRMRSDTPKVLHTLAGRSMLSHVLHAIAKLAPQRLIVVLGHDHQRIAPLVGELADTLGRTIDVALQDRPLGTGHAVLCGLSALPDDYAGNVVVTSGDTPLLDADTLADLIATHRAVSAAVTVLTTTLDDPFGYGRILRTQDHEVMAIVEQTDATPSQREIREVNAGVYAFDIAALRSALSRLSSNNAQQELYLTDVIAILRSDGQTVHASHVDDSALVAGVNNRVQLAELASELNRRVVAAHQLAGVTVVDPATTWIDVDVTIGRDTVIHPGTQLLGRTQIGGRCVVGPDTTLTDVAVGDGASVVRTHGSSSSIGDGAAVGPFTYLRPGTALGADGKLGAFVEVKNSTIGTGTKVPHLTYVGDADIGEYSNIGASSVFVNYDGTSKRRTTVGSHVRTGSDTMFVAPVTIGDGAYTGAGTVVREDVPPGALAVSAGPQRNIENWVQRKRPGSPAAQASKRASEMACQQPTQPPDADQTP	soluble
MQNNVVDSIIIDVLSASTHEKPLCKVITEERVLKLLDLALGVFKAQKPMVEVNAPIKVCGDIHGQFPDLLRLFHRGGWPPTANYLFLGDYVDRGRFSIETIVLLLAYKVKFPCNFFLLRGNHECEFVNKTYGFYEECQKRYQSVRMYAAFQDVFNWLPLTGLIATKILCMHGGLSPLMTKEFTLDTLRKIERPTEGKEGLVADLLWADPISGLSGFMNNQRGAGCGFGRDSVLNLCSEFQLDLVCRAHQVVQDGYEFFAGRKLVTIFSAPHYCGQFDNCAAFMSCDEKLQCSFEILRPTTGRLEIREKPLLKDETN	not soluble
TWILTADSPSLLGTVDVVTRYLFEQRCYVTEHHSFDDRLAQRFFIRVEFRAGDGFDEASFRAGLAERVAPFGMRTELTAPGYRSQVAIMVSKADHCLNDLLYRQRIGQLPMDVVAVISNHPDLEPLARWHGIPYHHFPLDPNDKPAQEARVWQVLEESGAELVILARYMQVLSPELCRRLDGWAINIHHSLLPGFKGAKPYHQAYQKGVKLVGATAHYINNDLDEGPIIAQGVETVDHAHYPEDLIAKGRDIECLTLARAVGYHIERRVFLNANRTVVL	not soluble
MLKIGVITMALLSFLNAGWLGNLFDNTPTPYYTMPIDLSKTGNVAETDIRIDKEYRTGIALNYDFRRQKNKMTRNEYNNIKVFFGNSYTSGTAIPVKLKIEKIMDKNETTILNDIIIVDNNGGHELHSSLIKEIALSQGKYRIKVETTEDFSELSDLSVLVEIYYIRAPK	not soluble
MSLRRLLQVFFFCPKQIYSFKLYQSLIFYNYTDAFFSVKIVSTTNFGGHIMSTTIIGFPRLGEFRELKFTTEKYFRKEISEEELLAAAKDLRAKHWNIVKEKGITEIPSNDFSHYDNFLDAAFLFNVVPASVQNLDLSDLERYFALGRGYQGEKGDVRALPMKKWFNTNYHYIVPKFEKDTQVKLAGHKIFDEFQEAKELGLNTRPVLVGPFTFLQLSDFEEGVKADDFVDSFVAAYQEVFAKLADLGATRIQLDEAALVKDLTAEEKALFLNLYNKLLADKKGLEVLFQTYFGDVRDVYADLVNLPVDAIGLDFVEGKKTLELVKGGFPADKTLYVGIVNGKNIWRNNYEKSLTVLEQIPAENIVLTSSCSLLHVPFTTANEEFEPALLNHFAFAVEKLDEIRDLDAIRNGQGSEALAANKELFATERVGENAELRARIAGLTDADYTRLPAFAEREAIQEEAFKLPALPTTTIGSFPQTKEVRAKRLAYRKGELSQKEYDAFLAETIDEWIKWQEDIDFDVLVHGEFERNDMVEYFGQNLSGYLFSKNGWVQSYGMRGVKPPIIWGDVTRLNPITVKWSSYAQSRTNKPVKGMLTGPVTILNWSFPREDISIKDSTLQIALAIKDEVLDLEAAGVKIIQIDEAALREKLPLRRSDWYEDYLDWAIPAFRLVHSTVAPDTQIHTHMCYSEFTDIIPAIDNMDADVISFEASRSNLEILDELKAKNFQTEVGPGVYDIHSPRVPNEGEIDNTIEAILAKVPSKKVWINPDCGLKTRGIPETKESLIRLVEAAKAAREKLEGHHHHHH	soluble
MISWEIEELDREIGKIKKHSLILIHEEDASSRGKDILFYILSRKLKSDNLVGMFSISYPLQLIIRILSRFGVDVIKYLENHRLAIVDTFGSFHGIKATMPGVWYLEGMLSSETLPIKYAKAVEDHKKVWMDLNLFEGRELYGFAISMSGYLEVFTPEETLRYLETSAEVRYGHPAYKKYPRGTNFWLWEGVKDKRVLLSVYRRADYVLKTRSSLGENGIKRELLVIKTPKPIEELVRFEYEFKGNEPKLRRVD	soluble
MPSNSTTGAQKCSRKVHSLKFKLEAIEYASKFSKTKAARDLKVSRQCIQDWVAQKTKIESQLKSTNKTAPKRLEGGGRPVQRETVDESVLRWFRDQREKKFRVSRNLIRQKAKEICGEDDFKASTGWLQKFMRRHHLSTRRATTTCQKEPDEFAKKIVDYVLFVEKMRLQNKYTDTHIFAADETAVYLDFSNSLTLNEKGAREVGKTNTLFFYFSHPMMKRCLILFQVPVKTTGHEKMHVTVLLTARADGYKCRPYVLLPRTRPDKEIAARFKNSLQLSWCNRTFFNDEVTEDYLNTIIGPPFFGKRLLAWDAFRCHISDATKRVLKNLKVDTAVVPGGCTKFVQAPDVYWNSPFKASIRRSYEDWMVHGQKSFTKSNNMRPPSMLQYLEWIENAWNDLPKDLILKSFKGCALTIATDGSEDNQVHCFAPNGSIPSGLDLLNSTRIENSLVDLVQDIGIDESQEEGNESDNSIISVG	not soluble
MGSDKIHHHHHHMRIAIVHYWLVGMRGGEKVIEALCRMYPQADIFTHVVAPERLSSMLAARHIRTSFIQRLPGSVRHYQKYLPLMPLALEQFDLRDYDLVISSESGPAKGVLTRADTAHVCYCHSPMRYLWDFQQDYLDNASPLMRPFMRIFFHYLRQWDVASSQRVDRFVANSRNVARRITKHWRREATVVHPPVECDLFTQAPDVADLPDDEVADIVRQGGYYLCLGQLVGYKRVDIAIEACRKAGRRLVVVGDGEQRAMLERNAPEGVTFLGWRTQDEIRALYAGCRALLFPGEEDFGIVPVECMASGRPVIAYGKGGALETVLDGETGVLFHEQTATACHDAIMRHERMERDFVPDSLRRHARTFDTSVFERKFRREVEAALHAVRG	not soluble
MKHLMKMWNPWWIERKVPASKKRISRPETLETILKLLDIREVICITGVRRCGKSTIMYQAIDHLIGKGVEPENILYFNLDEPFEDKSIGLLDRIFGEYIELHVPKGRKYIFLDEIQNVKDWEQWVKKFYDLHGEDIKFVLTGSNSSMLSDQLSILLTGRMITQHVFPLSFKEYLDFESFELKDPDIQRNEILHYFNKYLFKGGFPEVVLENDMDINHLRLTEYFNSILLRDIVVGRNIRESAKLIELANYSLSNVSTLLSYSKISNATGLSVNSLKEYLLFLEQAYLIYQLNFFSYSVKDSISIKMPKKVYCIDNGLRNSAAFTFSADEGRLAENLAFVELKRRKVEFFYWKEKREVDFVIKGIDGALTGINCTCTDHIRQGEINALLELKEQFGEKVSRLILLTKNLEKKENDISYIPLWKWVLGTRLSK	not soluble
MSKENIVTRENTAVSENAVSEPTVNNDVGASATNSVTHPAFTLNVRPDNIGIITIDVVGDKVNTLKAEFADQIATILQQAHALPKLQGLVIVSGKPDSFIAGADITMIAACRTAHDARVLAQKGQSILAQIAAFPVPVVAAIHGACLGGGLELALACHSRICSLDDKTVLGLPEVQLGLLPGSGGTQRLPRLVGVSKALDMILTGKQIRPRQALKMGLVDDVVPRDILLDVAIQRAKAGWLNRRALPWQERLLSGPLGKALLFRIVRKKTLAKTRGHYPAAERIIDVVRKGLDQGGPSGYEAEARAFGELAMSPQSAALRSLFFATTSLKKETGSAATARAIHRVGVLGGGLMGGGIANVTATRAGLPVRIKDINPQGINQALKYTWDALGKRVRSKRMRPTEQQRQMMLISGSTDYRGFERVDIVVEAVFEDLSLKQQMVADIERFGAAHTIFASNTSSLPISQIAALAQRPEQVIGLHYFSPVDKMPLVEVIPHEKTSEETIATTVALARKQGKTAIVVADRAGFYVNRILAPYINEAARCLLDGEPIESVDNALVDFGFPVGPMMLLDEVGIDVATKIMPILVEQLGPRFAAPPSFDVILKDGRKGRKNGRGFYLYSNPTKNSSPTKNGNSPAKRNSFKWRKNKVKPVDASIYTLLGVTPKAHLGAGVITQRCTMLMLNEAVRCLDESIIRNPRDGDIGAVFGIGFPPFLGGPFRYLDSLGADKVVQALRLLVQQYGERFEPCQRLVTMAEQQQQFYPVDANIDEVTDVAS	not soluble
GAKESEQKVTIDSAKHEKHTKDKEENNSANTVFFDKINDLLVASVKEFEGTVGISYLDLETGEQRSVNGQHEFYTASTIKVPLTMLVADTVASGQKKWTDLIPYNAEEDYEEGTGIIAYNIQPEYPLKTLQEYAITYSDNIAKNMLYDTLGGDAKAKREMYQRYLHKTPSIEEPQFSSEDALVILQKLYTEKATKPDYQAIYDSMKQSVFHERMETPTTQGKVAHKIGSYDEFIHDMGILETPHPFALAIFTKGPDNAKSAAFIASVTDKLWQLQVSEYPNQ	soluble
MGSDKIHHHHHHMNLYQTKLFTTLQKEYKNKYGVDISQFVKLTNSSINFDKFEEEQLTLKQKNVIKSIKKNNEKKIILSGGIASGKTYLACYLFLKSLIEIKKLYSSDTNNFIIGNSQRSVEVNVLGQFEKLCKLLKIPYIPRHTNNSYILIDSLRINLYGGDKASDFERFRGSNSALIFVNEATTLHKQTLEEVLKRLRCGQETIIFDTNPDHPEHYFKTDYIDNIATFKTYKFTTYDNVLLSKGFVETQEKLYKDIPSYKARVLLGEWIASTDSIFTQINITDDYVFTSPIAYLDPAFSVGGDNTALCVMERVDDKYYAFVFQDQRPANDPYIMNMVKTVIENFNVHTLYLEDRDNTKGAGGLTREYILLRSNISQYFRIVPVKPKSNKFSRITTLITPFTYKKLYITKYSSSSVFNDIYSYKGDNKTHDDALDAISAAYLMLSLGYRERSVHFGNQRFL	not soluble
MGSDKIHHHHHHDTDKGLARRLPPPVPKDQKNDTDVDIKKRNLLVVLINSNNQILCGDQFVDIKQLKERIKEFIDNPYNDEHKPERVEADVPFFGKMMVTKNHVISLQNDRGTEYQAYIDVQNEIAAAYNELRNKVSKEKFGKNFADLDEEQQKAVQQIYPQKISEAEPKNYGGKK	not soluble
MEEMLREIERILEWPRMLKATVISKGFSFDEKYKIELESGASYFIKVCDSSYFERKQEEYEYMQQLDSLHIPMPKLIHFISLTKFNKCVQVFEWIDGLDGEDNLRTLSTQTQYRAGKKAGEVIKKIHLVEKEDKSNSWEMSIWSKYERYLEALKEYEVDFFRLNTVIDFVGNHKDLLKNRPIVFLHDDFHPANIMIDQNEFRAVIDFARFDIGDPIHDFYKVALFTTNISKPFAVGQVHGYCGGEPDLHFWKLYSLYAAMIFPADIVWTNRSTPYLLDDMKERLNGILEDHNDFSSYIPKWYQSSEFNK	not soluble
MGSDKIHHHHHHMLIEIPNVFSKQEVSHLREQLDARRWIDGNQTSGAMATTRKRNQQLDKDDPVAVALGQQIMDRLLAHPQFVSAALPLQFYPPLFNRYQGGETFGYHIDNAIRSTPDGMIRTDLSATLFLSEPENYQGGELVIQDTYGQQSIKLSAGSLVLYPSSSLHQVTPVLSGERTAAFMWLQSMVRDEGQRRLLFQLDQSIQSLTAQTAAEQELFNLSGVYHNLLRRWSEL	not soluble
MAEVTILGLGNLLWADEGFGVRAAEKLFEQYADNEKVDVVDGGTQGLALLPWLQQTEKLLIMDAIDFGMAPGSLAMFRDEQVPAYLTAKKLSLHQTSFSEVLALLQLTGGQLSEIVLIGVQPECLDDYGGSLTPQVKAQLMPAVYLAQEVLAQWGITASSAALPTERLNHYSLCMERYEDERPDAQSACRVGDIRVLQREKS	not soluble
MGSDKIHHHHHHMTKHQNFIETKEYKRFAEFCDACIKYQYIGICYGQPGVGKTLSSRYYTNWNTIEKQVNHRGWEDLASKTTDDILSVNKIFYTAPAEKQTRLSNDLYSISASIDLGQKLHIVNKYGHDHSKHYSDMFKYIDLIIVDEIDRLKVQHLEQLRAIYDEHNLAMIFIGMPGIEKKLSRYPQLYSRIGFAHEFDNLSKDETHHILEYKWQDLGFDLKLEDFTDYEAITTIIKITKGNFRLIHRLFAQIDRIMDINGLDKISTEVVETARDSLVIGIR	not soluble
